Positions count from the first letter of the chain named. Names may count otherwise.
B1: βA3-crystallin (natural protein, UniProt P05813 1-215, looked up)
chain: METQAEQQELETLPTTKMAQTNPTPGSLGPWKITIYDQENFQGKRMEFTSSCPNVSERSFDNVRSLKVESGAWIGYEHTSFCGQQFILERGEYPRWDAWSGSNAYHIERLMSFRPICSANHKESKMTIFEKENFIGRQWEISDDYPSLQAMGWFNNEVGSMKIQSGAWVCYQYPGYRGYQYILECDHHGGDYKHWREWGSHAQTSQIQSIRRIQQ
notes: βA3-crystallin; also called BA3/BA1
B2: wild type (WT) human βB2-crystallin (natural protein, UniProt P43320 1-205, looked up)
chain: MASDHQTQAGKPQSLNPKIIIFEQENFQGHSHELNGPCPNLKETGVEKAGSVLVQAGPWVGYEQANCKGEQFVFEKGEYPRWDSWTSSRRTDSLSSLRPIKVDSQEHKIILYENPNFTGKKMEIIDDDVPSFHAHGYQEKVSSVRVQSGTWVGYQYPGYRGLQYLLEKGDYKDSSDFGAPHPQVQSVRRIRDMQWHQRGAFHPSN
notes: Cloned BamHI/HindIII into pET28a; Oligomeric state depends on concentration (dimer at 0.2 mg/ml, dimer and tetramer at higher concentrations); also called WT βB2-crystallin; BB2; source: E. coli Rosetta (DE3), pET28a, purified (Ni-NTA, Superdex 200)
B3: A2V mutated βB2-crystallin (natural protein, human, UniProt P43320 1-205, looked up)
chain: B2 chain with A2V
notes: human βB2-crystallin with the congenital cataract-linked A2V mutation, made by site-directed mutagenesis with primers from the start codon to the stop codon; Same vector and tag as m1; also called A2V mutant; source: E. coli Rosetta (DE3), pET28a, purified (Ni-NTA, Superdex 200)

Key:
[1] = target: the molecule itself; assay: SEC; βA3-crystallin alone, run beside the mixtures of Figure 5A; concentration not given
[2] = target: the molecule itself; assay: SEC; Superdex 200HR 10/300GL, protein at 0.2 mg/ml, buffer A (20 mM sodium phosphate, 100 mM NaCl, 1 mM DTT, 1 mM EDTA, pH 7.2), equilibrated 2 h at 4°C, run at 16°C; dimer
[3] = target: the molecule itself; assay: SEC; Superdex 200HR 10/300GL, protein concentration raised above 0.2 up to 4 mg/ml, buffer A, equilibrated 2 h at 4°C, run at 16°C; tetramer to dimers

Protein	stoichiometry N [1]	stoichiometry N [2]	stoichiometry N [3]
B1	2	–	–
B2	–	2	4
B3	–	2	4

Reference: paper PMC3516508 (PLoS ONE, 2012)
